Our source for the ratio of anti-His to anti-RFP signals (densitometry), fold over the RFP control values is paper PMC5829824.

This assay concerns the target mCherry-tagged human vimentin (human) (UniProt P08670). In words: co-IP; mCherry-vimentin or RFP from bEnd.3 cell extracts immunoprecipitated with RFP-trap beads, then incubated with purified InlF-His6; eluates blotted with anti-His6 and anti-RFP; densitometry.

Sequence of mCherry-tagged human vimentin (human) (P08670 whole entry): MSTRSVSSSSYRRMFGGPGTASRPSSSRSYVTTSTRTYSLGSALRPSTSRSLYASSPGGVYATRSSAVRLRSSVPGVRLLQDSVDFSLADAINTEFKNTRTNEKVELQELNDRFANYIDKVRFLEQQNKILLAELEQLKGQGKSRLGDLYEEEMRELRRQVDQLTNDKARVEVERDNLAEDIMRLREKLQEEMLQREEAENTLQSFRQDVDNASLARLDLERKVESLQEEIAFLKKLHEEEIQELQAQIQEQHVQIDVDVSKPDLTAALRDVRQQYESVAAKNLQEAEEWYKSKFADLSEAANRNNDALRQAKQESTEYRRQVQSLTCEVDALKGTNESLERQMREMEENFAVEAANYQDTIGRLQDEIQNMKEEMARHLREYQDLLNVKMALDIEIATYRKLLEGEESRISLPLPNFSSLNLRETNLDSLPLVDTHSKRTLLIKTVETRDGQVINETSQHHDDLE

In the case of “InlF-His6 (Listeria monocytogenes internalin family surface protein InlF, His6-tagged) (from UniProt O33930 1-821) (natural protein)”, the ratio of anti-His to anti-RFP signals (densitometry), fold over the RFP control was more than 5 fold.
